From US8748182B2, “Mutant proteins and methods for producing them” (Heptares Therapeutics Limited, priority 2007, dated 2014) come the findings set out here.

This data set can be described thus: Thermostability of neurotensin receptor (NTR) mutants (3H-neurotensin binding). Format: physicochemical. As to conditions: for thermostability, heated in the presence of 3H-neurotensin: Ligand(+) format.

B1: A73L: NTR point mutant (protein, UniProt P20789 1-424, looked up, variant A73L)
Neurotensin receptor type 1: MHLNSSVPQGTPGEPDAQPFSGPQSEMEATFLALSLSNGSGNTSESDTAGPNSDLDVNTDIYSKVLVTAIYLLLFVVGTVGNSVTAFTLARKKSLQSLQSTVHYHLGSLALSDLLILLLAMPVELYNFIWVHHPWAFGDAGCRGYYFLRDACTYATALNVASLSVERYLAICHPFKAKTLMSRSRTKKFISAIWLASALLAIPMLFTMGLQNRSGDGTHPGGLVCTPIVDTATVKVVIQVNTFMSFLFPMLVISILNTVIANKLTVMVHQAAEQGRVCTVGTHNGLEHSTFNMTIEPGRVQALRHGVLVLRAVVIAFVVCWLPYHVRRLMFCYISDEQWTTFLFDFYHYFYMLTNALFYVSSAINPILYNLVSANFRQVFLSTLACLCPGWRHRRKKRPTFSRKPNSMSSNHAFSTSATRETLY
Consider B1, for which the “thermostability, heated in the presence of 3H-neurotensin” value (“thermostability, heated in the presence” below) is on record as “improved thermostability”.

B2: R395A: NTR point mutant (protein, UniProt P20789 1-424, looked up, variant R395A)
Neurotensin receptor type 1: MHLNSSVPQGTPGEPDAQPFSGPQSEMEATFLALSLSNGSGNTSESDTAGPNSDLDVNTDIYSKVLVTAIYLALFVVGTVGNSVTAFTLARKKSLQSLQSTVHYHLGSLALSDLLILLLAMPVELYNFIWVHHPWAFGDAGCRGYYFLRDACTYATALNVASLSVERYLAICHPFKAKTLMSRSRTKKFISAIWLASALLAIPMLFTMGLQNRSGDGTHPGGLVCTPIVDTATVKVVIQVNTFMSFLFPMLVISILNTVIANKLTVMVHQAAEQGRVCTVGTHNGLEHSTFNMTIEPGRVQALRHGVLVLRAVVIAFVVCWLPYHVRRLMFCYISDEQWTTFLFDFYHYFYMLTNALFYVSSAINPILYNLVSANFRQVFLSTLACLCPGWRHRAKKRPTFSRKPNSMSSNHAFSTSATRETLY
With B2, the “thermostability, heated in the presence” value is “improved thermostability”.

B3: V229A: NTR point mutant (protein, UniProt P20789 1-424, looked up, variant V229A)
Neurotensin receptor type 1: MHLNSSVPQGTPGEPDAQPFSGPQSEMEATFLALSLSNGSGNTSESDTAGPNSDLDVNTDIYSKVLVTAIYLALFVVGTVGNSVTAFTLARKKSLQSLQSTVHYHLGSLALSDLLILLLAMPVELYNFIWVHHPWAFGDAGCRGYYFLRDACTYATALNVASLSVERYLAICHPFKAKTLMSRSRTKKFISAIWLASALLAIPMLFTMGLQNRSGDGTHPGGLVCTPIADTATVKVVIQVNTFMSFLFPMLVISILNTVIANKLTVMVHQAAEQGRVCTVGTHNGLEHSTFNMTIEPGRVQALRHGVLVLRAVVIAFVVCWLPYHVRRLMFCYISDEQWTTFLFDFYHYFYMLTNALFYVSSAINPILYNLVSANFRQVFLSTLACLCPGWRHRRKKRPTFSRKPNSMSSNHAFSTSATRETLY
In the case of B3, the “thermostability, heated in the presence” value is “improved thermostability”.

B4: V165A: NTR point mutant (protein, UniProt P20789 1-424, looked up, variant V165A)
Neurotensin receptor type 1: MHLNSSVPQGTPGEPDAQPFSGPQSEMEATFLALSLSNGSGNTSESDTAGPNSDLDVNTDIYSKVLVTAIYLALFVVGTVGNSVTAFTLARKKSLQSLQSTVHYHLGSLALSDLLILLLAMPVELYNFIWVHHPWAFGDAGCRGYYFLRDACTYATALNVASLSAERYLAICHPFKAKTLMSRSRTKKFISAIWLASALLAIPMLFTMGLQNRSGDGTHPGGLVCTPIVDTATVKVVIQVNTFMSFLFPMLVISILNTVIANKLTVMVHQAAEQGRVCTVGTHNGLEHSTFNMTIEPGRVQALRHGVLVLRAVVIAFVVCWLPYHVRRLMFCYISDEQWTTFLFDFYHYFYMLTNALFYVSSAINPILYNLVSANFRQVFLSTLACLCPGWRHRRKKRPTFSRKPNSMSSNHAFSTSATRETLY
With B4, the “thermostability, heated in the presence” value is “improved thermostability”.

B5: G215A: NTR point mutant (protein, UniProt P20789 1-424, looked up, variant G215A)
Neurotensin receptor type 1: MHLNSSVPQGTPGEPDAQPFSGPQSEMEATFLALSLSNGSGNTSESDTAGPNSDLDVNTDIYSKVLVTAIYLALFVVGTVGNSVTAFTLARKKSLQSLQSTVHYHLGSLALSDLLILLLAMPVELYNFIWVHHPWAFGDAGCRGYYFLRDACTYATALNVASLSVERYLAICHPFKAKTLMSRSRTKKFISAIWLASALLAIPMLFTMGLQNRSADGTHPGGLVCTPIVDTATVKVVIQVNTFMSFLFPMLVISILNTVIANKLTVMVHQAAEQGRVCTVGTHNGLEHSTFNMTIEPGRVQALRHGVLVLRAVVIAFVVCWLPYHVRRLMFCYISDEQWTTFLFDFYHYFYMLTNALFYVSSAINPILYNLVSANFRQVFLSTLACLCPGWRHRRKKRPTFSRKPNSMSSNHAFSTSATRETLY
As to B5, the “thermostability, heated in the presence” value was “improved thermostability”.

B6: G390A: NTR point mutant (protein, UniProt P20789 1-424, looked up, variant G390A)
Neurotensin receptor type 1: MHLNSSVPQGTPGEPDAQPFSGPQSEMEATFLALSLSNGSGNTSESDTAGPNSDLDVNTDIYSKVLVTAIYLALFVVGTVGNSVTAFTLARKKSLQSLQSTVHYHLGSLALSDLLILLLAMPVELYNFIWVHHPWAFGDAGCRGYYFLRDACTYATALNVASLSVERYLAICHPFKAKTLMSRSRTKKFISAIWLASALLAIPMLFTMGLQNRSGDGTHPGGLVCTPIVDTATVKVVIQVNTFMSFLFPMLVISILNTVIANKLTVMVHQAAEQGRVCTVGTHNGLEHSTFNMTIEPGRVQALRHGVLVLRAVVIAFVVCWLPYHVRRLMFCYISDEQWTTFLFDFYHYFYMLTNALFYVSSAINPILYNLVSANFRQVFLSTLACLCPAWRHRRKKRPTFSRKPNSMSSNHAFSTSATRETLY
As for B6, the “thermostability, heated in the presence” value is reported as “improved thermostability”.

B7: E166A: NTR point mutant (protein, UniProt P20789 1-424, looked up, variant E166A)
Neurotensin receptor type 1: MHLNSSVPQGTPGEPDAQPFSGPQSEMEATFLALSLSNGSGNTSESDTAGPNSDLDVNTDIYSKVLVTAIYLALFVVGTVGNSVTAFTLARKKSLQSLQSTVHYHLGSLALSDLLILLLAMPVELYNFIWVHHPWAFGDAGCRGYYFLRDACTYATALNVASLSVARYLAICHPFKAKTLMSRSRTKKFISAIWLASALLAIPMLFTMGLQNRSGDGTHPGGLVCTPIVDTATVKVVIQVNTFMSFLFPMLVISILNTVIANKLTVMVHQAAEQGRVCTVGTHNGLEHSTFNMTIEPGRVQALRHGVLVLRAVVIAFVVCWLPYHVRRLMFCYISDEQWTTFLFDFYHYFYMLTNALFYVSSAINPILYNLVSANFRQVFLSTLACLCPGWRHRRKKRPTFSRKPNSMSSNHAFSTSATRETLY
Consider B7, for which the “thermostability, heated in the presence” value is on record as “improved thermostability”.

B8: P389A: NTR point mutant (protein, UniProt P20789 1-424, looked up, variant P389A)
Neurotensin receptor type 1: MHLNSSVPQGTPGEPDAQPFSGPQSEMEATFLALSLSNGSGNTSESDTAGPNSDLDVNTDIYSKVLVTAIYLALFVVGTVGNSVTAFTLARKKSLQSLQSTVHYHLGSLALSDLLILLLAMPVELYNFIWVHHPWAFGDAGCRGYYFLRDACTYATALNVASLSVERYLAICHPFKAKTLMSRSRTKKFISAIWLASALLAIPMLFTMGLQNRSGDGTHPGGLVCTPIVDTATVKVVIQVNTFMSFLFPMLVISILNTVIANKLTVMVHQAAEQGRVCTVGTHNGLEHSTFNMTIEPGRVQALRHGVLVLRAVVIAFVVCWLPYHVRRLMFCYISDEQWTTFLFDFYHYFYMLTNALFYVSSAINPILYNLVSANFRQVFLSTLACLCAGWRHRRKKRPTFSRKPNSMSSNHAFSTSATRETLY
As for B8, the “thermostability, heated in the presence” value is on record as “improved thermostability”.

B9: Nag7m: NTR with F358A+A86L+I260A+F342A (protein)
chain: TSESDTAGPNSDLDVNTDIYSKVLVTAIYLALFVVGTVGNSVTLFTLARKKSLQSLQSTVHYHLGSLALSDLLILLLAMPVELYNFIWVHHPWAFGDAGCRGYYFLRDACTYATALNVASLSVERYLAICHPFKAKTLMSRSRTKKFISAIWLASALLAIPMLFTMGLQNRSGDGTHPGGLVCTPIVDTATVKVVIQVNTFMSFLFPMLVISILNTVAANKLTVMVHQAAEQGRVCTVGTHNGLEHSTFNMTIEPGRVQALRHGVLVLRAVVIAFVVCWLPYHVRRLMFCYISDEQWTTALFDFYHYFYMLTNALAYVSSAINPILYNLVSANFRQVFLSTLACLCPGWRHRRKKRPTFSRKPNSMSSNHAFSTSATRETLY
With B9, the “Tm (neurotensin bound)” value stood at 51 °C.

B10: Wildtype NTR: wild-type rat neurotensin receptor (protein)
chain: TSESDTAGPNSDLDVNTDIYSKVLVTAIYLALFVVGTVGNSVTAFTLARKKSLQSLQSTVHYHLGSLALSDLLILLLAMPVELYNFIWVHHPWAFGDAGCRGYYFLRDACTYATALNVASLSVERYLAICHPFKAKTLMSRSRTKKFISAIWLASALLAIPMLFTMGLQNRSGDGTHPGGLVCTPIVDTATVKVVIQVNTFMSFLFPMLVISILNTVIANKLTVMVHQAAEQGRVCTVGTHNGLEHSTFNMTIEPGRVQALRHGVLVLRAVVIAFVVCWLPYHVRRLMFCYISDEQWTTFLFDFYHYFYMLTNALFYVSSAINPILYNLVSANFRQVFLSTLACLCPGWRHRRKKRPTFSRKPNSMSSNHAFSTSATRETLY
With B10, the “Tm (neurotensin bound)” value was found to be 35 °C.

B11: Nag7n: NTR with F358A+H103A+I260A+F342A (protein)
chain: TSESDTAGPNSDLDVNTDIYSKVLVTAIYLALFVVGTVGNSVTAFTLARKKSLQSLQSTVAYHLGSLALSDLLILLLAMPVELYNFIWVHHPWAFGDAGCRGYYFLRDACTYATALNVASLSVERYLAICHPFKAKTLMSRSRTKKFISAIWLASALLAIPMLFTMGLQNRSGDGTHPGGLVCTPIVDTATVKVVIQVNTFMSFLFPMLVISILNTVAANKLTVMVHQAAEQGRVCTVGTHNGLEHSTFNMTIEPGRVQALRHGVLVLRAVVIAFVVCWLPYHVRRLMFCYISDEQWTTALFDFYHYFYMLTNALAYVSSAINPILYNLVSANFRQVFLSTLACLCPGWRHRRKKRPTFSRKPNSMSSNHAFSTSATRETLY
Turning to B11, the “Tm (neurotensin bound)” value worked out at 51 °C.
